Assay results published in patent publication US20210371867A1 (SYSMEX, published 2021).
Changes are numbered by the printed parent chain.

What was measured:
[1] = molecular target: human IgG antibody (human); experiment: sandwich chemiluminescence immunoassay (HISCL-800); detection reagent stored at 40° C. for 1 week
[2] = molecular target: human IgG antibody (human); experiment: sandwich chemiluminescence immunoassay (HISCL-800); PC counts over NC counts, R3 reagent stored at 4° C.
[3] = molecular target: human IgG antibody (human); experiment: sandwich chemiluminescence immunoassay on magnetic particles (HISCL-800); capture biotin-labeled mouse anti-human IgG semi-IgG; binder as detection antibody, 0.051 U/mL
[4] = molecular target: T1, human CD80/B7-1 protein (His tag) (human, UniProt P33681 35-242); experiment: sandwich chemiluminescence ELISA; capture rabbit anti-CD80 IgG on plate, antigen 0.005-20 ng/mL, binder as detection antibody at 200 ng/mL
T1 construct: Recombinant His-tagged protein used as the antigen solution; also called antigen
T1 sequence (looked up): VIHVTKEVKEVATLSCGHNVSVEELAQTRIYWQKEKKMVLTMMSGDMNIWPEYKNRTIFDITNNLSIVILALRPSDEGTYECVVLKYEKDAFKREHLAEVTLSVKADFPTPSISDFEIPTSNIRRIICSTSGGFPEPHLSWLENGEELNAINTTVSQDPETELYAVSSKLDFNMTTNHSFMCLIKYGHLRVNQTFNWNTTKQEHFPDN
Method: Rabbit anti-CD80 antibody (IgG) was diluted with PBS to 1 μg/mL. The resulting antibody solution was added to a 96-well black plate at 100 μL/well and allowed to stand overnight at 4° C. to immobilize the antibody in the wells. After removing the antibody solution from the plate, Buffer I′ (100 mM HEPES, 1% BSA, 0.05% ProClin (trademark), 1 mM MgCl₂, 0.1 mM ZnCl₂, pH 8.0) was added at 300 μL/well and allowed to stand overnight at 4° C. for blocking. After removing the solution from the plate, a human CD80/B7-1 protein (His tag) solution (0.005, 0.020, 0.078, 0.313, 1.25, 5.0 or 20 ng/mL) was added as an antigen solution at 100 μL/well. The plate was shaken at room temperature at 500 rpm for 1 hour to perform an antigen-antibody reaction. The plate was washed three times with a HISCL washing solution (Sysmex Corporation), and then each ALP fusion antibody (200 ng/mL) of Example 1 diluted with Buffer I′ was added at 100 μL/well. The plate was shaken at room temperature at 500 rpm for 1 hour to perform an antigen-antibody reaction. After washing the plate with a HISCL washing solution three times, a HISCL R5 reagent (Sysmex Corporation) as a solution of a chemiluminescent substrate of ALP was added at 100 μL/well, and luminescence intensity was immediately measured with FLUOstar OPTIMA (BMG LABTECH).

[5] = molecular target: human IgG antibody (human); experiment: sandwich chemiluminescence immunoassay on magnetic particles (HISCL-800); capture biotin-labeled mouse anti-human IgG semi-IgG; binder as detection antibody, 0.052 U/mL
[6] = molecular target: human IgG antibody (human); experiment: sandwich chemiluminescence immunoassay on magnetic particles (HISCL-800); capture biotin-labeled mouse anti-human IgG semi-IgG; binder as detection antibody, 0.055 U/mL

B1: ALP fusion antibody of Example 2 (GS3): Fab of mouse anti-human IgG antibody, Fd-GS3-BIAPII (Fab, part only; not given: Fd and light chain of anti-IgG Fab, part only)
heavy, part: GGGGSGGGGSGGGGSLIPAEEENPAFWNRQAAQALDVAKKLQPIQTAAKNVILFLGDGMGVPTVTATRILKGQMNGKLGPETPLAMDQFPYVALSKTYNVDRQVPDSAGTATAYLCGVKGNYRTIGVSAAARYNQCNTTRGNEVTSVINRAKKAGKAVGVVTTTRVQHASPAGAYAHTVNRNWYSDADLPADAQKNGCQDIAAQLVYNMDIDVILGGGRMYMFPEGTPDPEYPDDASVNGVRKDKQNLVQEWQAKHQGAQYVWNRTALLQAADDSSVTHLMGLFEPADMKYNVQQDHTKDPTLAEMTEAALQVLSRNPRGFYLFVEGGRIDHGHHDGKAYMALTEAIMFDNAIAKANELTSELDTLILVTADHSHVFSFGGYTLRGTSIFGLAPGKALDSKSYTSILYGNGPGYALGGGSRPDVNGSTSEEPSYRQQAAVPLASETHGGEDVAVFARGPQAHLVHGVQEETFVAHIMAFAGCVEPYTDCNLPAPA
Counts (PC, R3 reagent stored at 40° C., 1 week) [1]: 331000 counts
S/N [2]: 737
Counts (PC, R3 reagent stored at 4° C.) [3]: 364000 counts

B2: ALP fusion antibody of Example 1 (GS3 linker): Fab of rabbit anti-CD80 antibody, Fd-GS3-BIAPII (Fab)
heavy: QSVEESGGRLVTPGTPLTLTCTASGFSLSNNAVSWVRQAPGEGLEWIGTISSNDNTYYATWAKGRFTISKTSTTVDLKITSPTTEDTATYFCAIYYYGYGYVFNLWGPGTLVTVSSGQPKAPSVFPLAPCCGDTPSSTVTLGCLVKGYLPEPVTVTWNSGTLTNGVRTFPSVRQSSGLYSLSSVVSVTSSSQPVTCNVAHPATNTKVDKTVAPSTCSKPTGGGGSGGGGSGGGGSLIPAEEENPAFWNRQAAQALDVAKKLQPIQTAAKNVILFLGDGMGVPTVTATRILKGQMNGKLGPETPLAMDQFPYVALSKTYNVDRQVPDSAGTATAYLCGVKGNYRTIGVSAAARYNQCNTTRGNEVTSVINRAKKAGKAVGVVTTTRVQHASPAGAYAHTVNRNWYSDADLPADAQKNGCQDIAAQLVYNMDIDVILGGGRMYMFPEGTPDPEYPDDASVNGVRKDKQNLVQEWQAKHQGAQYVWNRTALLQAADDSSVTHLMGLFEPADMKYNVQQDHTKDPTLAEMTEAALQVLSRNPRGFYLFVEGGRIDHGHHDGKAYMALTEAIMFDNAIAKANELTSELDTLILVTADHSHVFSFGGYTLRGTSIFGLAPGKALDSKSYTSILYGNGPGYALGGGSRPDVNGSTSEEPSYRQQAAVPLASETHGGEDVAVFARGPQAHLVHGVQEETFVAHIMAFAGCVEPYTDCNLPAPA
light: ELVMTQTPASVSEPVGGTVTINCQASEDIYSSLAWYQQKPGQRPKLLMYYASTLASGVPSRFKGSGSGTEFTLTISDLECADAATYYCQSYYLSSSSRYGNAFGGGTEVVVKGDPVAPTVLIFPPAADQVATGTVTIVCVANKYFPDVTVTWEVDGTTQTTGIENSKTPQNSADCTYNLSSTLTLTSTQYNSHKEYTCKVTQGTTSVVQSFIG
notes: Fab-enzyme fusion, dimer through the ALP subunits
binding result [4]: binds

B3: ALP fusion antibody of Example 1 (EK3 linker): Fab of rabbit anti-CD80 antibody, Fd-EK3-BIAPII (Fab)
heavy: QSVEESGGRLVTPGTPLTLTCTASGFSLSNNAVSWVRQAPGEGLEWIGTISSNDNTYYATWAKGRFTISKTSTTVDLKITSPTTEDTATYFCAIYYYGYGYVFNLWGPGTLVTVSSGQPKAPSVFPLAPCCGDTPSSTVTLGCLVKGYLPEPVTVTWNSGTLTNGVRTFPSVRQSSGLYSLSSVVSVTSSSQPVTCNVAHPATNTKVDKTVAPSTCSKPTEAAAKEAAAKEAAAKLIPAEEENPAFWNRQAAQALDVAKKLQPIQTAAKNVILFLGDGMGVPTVTATRILKGQMNGKLGPETPLAMDQFPYVALSKTYNVDRQVPDSAGTATAYLCGVKGNYRTIGVSAAARYNQCNTTRGNEVTSVINRAKKAGKAVGVVTTTRVQHASPAGAYAHTVNRNWYSDADLPADAQKNGCQDIAAQLVYNMDIDVILGGGRMYMFPEGTPDPEYPDDASVNGVRKDKQNLVQEWQAKHQGAQYVWNRTALLQAADDSSVTHLMGLFEPADMKYNVQQDHTKDPTLAEMTEAALQVLSRNPRGFYLFVEGGRIDHGHHDGKAYMALTEAIMFDNAIAKANELTSELDTLILVTADHSHVFSFGGYTLRGTSIFGLAPGKALDSKSYTSILYGNGPGYALGGGSRPDVNGSTSEEPSYRQQAAVPLASETHGGEDVAVFARGPQAHLVHGVQEETFVAHIMAFAGCVEPYTDCNLPAPA
light: B2 light
notes: as for B2
binding result [4]: binds

B4: ALP fusion antibody of Example 2 (GS1): Fab of mouse anti-human IgG antibody, Fd-GS1-BIAPII (Fab, part only; not given: Fd and light chain of anti-IgG Fab, part only)
heavy, part: GGGGSLIPAEEENPAFWNRQAAQALDVAKKLQPIQTAAKNVILFLGDGMGVPTVTATRILKGQMNGKLGPETPLAMDQFPYVALSKTYNVDRQVPDSAGTATAYLCGVKGNYRTIGVSAAARYNQCNTTRGNEVTSVINRAKKAGKAVGVVTTTRVQHASPAGAYAHTVNRNWYSDADLPADAQKNGCQDIAAQLVYNMDIDVILGGGRMYMFPEGTPDPEYPDDASVNGVRKDKQNLVQEWQAKHQGAQYVWNRTALLQAADDSSVTHLMGLFEPADMKYNVQQDHTKDPTLAEMTEAALQVLSRNPRGFYLFVEGGRIDHGHHDGKAYMALTEAIMFDNAIAKANELTSELDTLILVTADHSHVFSFGGYTLRGTSIFGLAPGKALDSKSYTSILYGNGPGYALGGGSRPDVNGSTSEEPSYRQQAAVPLASETHGGEDVAVFARGPQAHLVHGVQEETFVAHIMAFAGCVEPYTDCNLPAPA
Counts (PC, R3 reagent stored at 40° C., 1 week) [1]: 320000 counts
S/N [2]: 737
Counts (PC, R3 reagent stored at 4° C.) [3]: 359000 counts

B5: ALP fusion antibody of Example 2 (EK1): Fab of mouse anti-human IgG antibody, Fd-EK1-BIAPII (Fab, part only; not given: Fd and light chain of anti-IgG Fab, part only)
heavy, part: B4 heavy, part with G1E, G2A, G3A, G4A, S5K
Counts (PC, R3 reagent stored at 4° C.) [5]: 463000 counts
Counts (PC, R3 reagent stored at 40° C., 1 week) [1]: 421000 counts
S/N [2]: 927

B6: ALP fusion antibody of Example 2 (EK3): Fab of mouse anti-human IgG antibody, Fd-EK3-BIAPII (Fab, part only; not given: Fd and light chain of anti-IgG Fab, part only)
heavy, part: EAAAKEAAAKEAAAKLIPAEEENPAFWNRQAAQALDVAKKLQPIQTAAKNVILFLGDGMGVPTVTATRILKGQMNGKLGPETPLAMDQFPYVALSKTYNVDRQVPDSAGTATAYLCGVKGNYRTIGVSAAARYNQCNTTRGNEVTSVINRAKKAGKAVGVVTTTRVQHASPAGAYAHTVNRNWYSDADLPADAQKNGCQDIAAQLVYNMDIDVILGGGRMYMFPEGTPDPEYPDDASVNGVRKDKQNLVQEWQAKHQGAQYVWNRTALLQAADDSSVTHLMGLFEPADMKYNVQQDHTKDPTLAEMTEAALQVLSRNPRGFYLFVEGGRIDHGHHDGKAYMALTEAIMFDNAIAKANELTSELDTLILVTADHSHVFSFGGYTLRGTSIFGLAPGKALDSKSYTSILYGNGPGYALGGGSRPDVNGSTSEEPSYRQQAAVPLASETHGGEDVAVFARGPQAHLVHGVQEETFVAHIMAFAGCVEPYTDCNLPAPA
Counts (PC, R3 reagent stored at 40° C., 1 week) [1]: 436000 counts
Counts (PC, R3 reagent stored at 4° C.) [6]: 465000 counts
S/N [2]: 665
